Test system: MS2 coat protein
Assay: apparent KD of MS2 coat protein; higher = weaker reporter binding
Details: Eterna round: R107
Protocol: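 RNA-MaP round R107: designed RNA switches with theophylline, tryptophan, arginine or FMN aptamers are transcribed on-chip within common flanks. They are titrated with SNAP-549-labelled MS2 coat protein in RNA-MaP buffer (100 mM Tris pH 7.5, 80 mM KCl, 4 mM MgCl2), without ligand or with the indicated ligand. Median apparent KD per design.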

[1] = input ligand: theophylline 20 uM
[2] = input ligand: theophylline 2 mM
[3] = input ligand: tryptophan 2.4 mM

AAUAACAAGAGGAUCACCCUUGUAAAAGAUACCAGAGUGAUGAUCCUCCCUUGGCAGCUUAACGCUGAUUGAUUACAAUCAGCGA
apparent KD of MS2 coat protein (input ligand: arginine 13.2 mM): 27 nM
apparent KD of MS2 coat protein (input ligand: none): 35.5 nM
apparent KD of MS2 coat protein [1]: 81.8 nM
apparent KD of MS2 coat protein [2]: 142 nM
apparent KD of MS2 coat protein [3]: 32 nM

AAUAAUAACUGAAGGAGCGUCUAUAUUACAUGAGGAUCACCCAUGUUUAUAUGGUAUUAUAGACAGGUAGGUCGCAGAUUUUUUA [JR_SSArginiB_Sub016]
apparent KD of MS2 coat protein (input ligand: arginine 13.2 mM): 14.5 nM
apparent KD of MS2 coat protein (input ligand: none): 16.6 nM
apparent KD of MS2 coat protein [1]: 22.1 nM
apparent KD of MS2 coat protein [2]: 18.6 nM
apparent KD of MS2 coat protein [3]: 16.3 nM

AAUAAUAAGGCGGCCGCCACUACACAUGAGGAUCACCCAUGUCUCGCGGGCUUGCGUUGGGAUUGUAGGACCGGGCCAAUAAUAA [Exclusion - Tryptophan B (Freestyle 11)]
apparent KD of MS2 coat protein (input ligand: arginine 13.2 mM): 15.2 nM
apparent KD of MS2 coat protein [1]: 35.7 nM
apparent KD of MS2 coat protein [2]: 30.4 nM

AAUGCCGGAUCGGCCGCCACUGGUUGGCUCUGUGUACAUGAGGAUCACCCAUGUCCAUCCCAAACCAGGACCGGGAUCUUUGUGU [Veonmale]
apparent KD of MS2 coat protein (input ligand: arginine 13.2 mM): 14.6 nM
apparent KD of MS2 coat protein [1]: 17.4 nM
apparent KD of MS2 coat protein [2]: 13.5 nM

AAUGCUGCCAAGGAUUCCUCAUGAGCAGAUACCAGCUAGGAAACUAGCCCUUGGCAGCUGCAACAUGAGGAUCACCCAUGUAAUA [(T)'-(M)'-(T1)-(T2)-(M1)-(M2)_Design7]
apparent KD of MS2 coat protein (input ligand: arginine 13.2 mM): 31 nM
apparent KD of MS2 coat protein [1]: 94.2 nM
apparent KD of MS2 coat protein [3]: 35.7 nM

AAUGGCCGUACCGGAAGGGUGAUCCUCAAACGAGGACCGGUACGGCCGCCACUCGAUAACAUGAGGAUCACCCAUGUAAUAAUAA [|T'-M'-Trp-Ms2|_Design13]
apparent KD of MS2 coat protein (input ligand: arginine 13.2 mM): 85 nM
apparent KD of MS2 coat protein [1]: 481 nM
apparent KD of MS2 coat protein [2]: 677 nM

AAUGUAAUAGUCGUACUCUUACACUGAGAAGGAGCGCGAAAGUUCGCAGGUAGGUCGCUCAGUUAUACAUGAGGAUCACCCAUGU [Bebemaata]
apparent KD of MS2 coat protein (input ligand: arginine 13.2 mM): 24.1 nM
apparent KD of MS2 coat protein (input ligand: none): 24.8 nM
apparent KD of MS2 coat protein [1]: 28.3 nM
apparent KD of MS2 coat protein [2]: 27.9 nM
apparent KD of MS2 coat protein [3]: 24.1 nM

AAUGUAUGGCACAUGAGGAUCACCCAUGUGCGAGGACCGGUACGGCCGCCACUCGGUCCUGGGUUCUUAUUACUAUACAUUAAUG [XTryp A #15]
apparent KD of MS2 coat protein (input ligand: arginine 13.2 mM): 9.78 nM
apparent KD of MS2 coat protein (input ligand: none): 11 nM
apparent KD of MS2 coat protein [1]: 16 nM
apparent KD of MS2 coat protein [2]: 14.4 nM
apparent KD of MS2 coat protein [3]: 27.1 nM

AAUUCCUAACAUGAGGAUCACCCAUGUGAAGGAGCGCCGAAUAAGGCAGGUAGGUCGCACAUGGAACUGCUACGAAAGUAGAAAA [XArg-A 4 V2mod]
apparent KD of MS2 coat protein (input ligand: arginine 13.2 mM): 19.2 nM
apparent KD of MS2 coat protein (input ligand: none): 16.2 nM
apparent KD of MS2 coat protein [1]: 23.3 nM
apparent KD of MS2 coat protein [2]: 35.1 nM
apparent KD of MS2 coat protein [3]: 18.8 nM

ACACAUGAGGAUCACCCAUGUAAAGUUGAAGGAGCGAUCAUUAGGUCAGGUAGGUCGCAGCACAUGAGGAUCACCCAUGUCGUGA [DOUBLE!!! :-D #2]
apparent KD of MS2 coat protein (input ligand: arginine 13.2 mM): 31.3 nM
apparent KD of MS2 coat protein (input ligand: none): 96.1 nM
apparent KD of MS2 coat protein [1]: 85.5 nM
apparent KD of MS2 coat protein [2]: 73.7 nM
apparent KD of MS2 coat protein [3]: 86.9 nM

ACACCAUACAUGAGGAUCACCCAUGUUACACGAGGACCGGUACGGCCGCCACUCGAAUUCAGGAAACCUCGGAUAAUAUUGUGAA [JR_SS-TryptA_Sub001]
apparent KD of MS2 coat protein (input ligand: arginine 13.2 mM): 22.3 nM
apparent KD of MS2 coat protein [1]: 50.1 nM
apparent KD of MS2 coat protein [2]: 32.4 nM

ACAUGAAUAUCAUCUAUUUAUUGUACUGAAGGAGCGUCCAUGAGGACAGGUAGGUCGCAGUGUAAAACAUGAGGAUCACCCAUGU [Same State - Arginine A #1]
apparent KD of MS2 coat protein (input ligand: arginine 13.2 mM): 22.6 nM
apparent KD of MS2 coat protein (input ligand: none): 22.2 nM
apparent KD of MS2 coat protein [1]: 36.6 nM
apparent KD of MS2 coat protein [2]: 29 nM
apparent KD of MS2 coat protein [3]: 23 nM

ACAUGAGGAUCACCCAUGUAACAAACAGAAGGAGCGUGAAAGAACACAGGUAGGUCGCUGAACUUAAUGAAUACUCAUUAGAUCC [JR_Nu_SSArginiA_Sub027]
apparent KD of MS2 coat protein (input ligand: arginine 13.2 mM): 13.4 nM
apparent KD of MS2 coat protein (input ligand: none): 14.7 nM
apparent KD of MS2 coat protein [1]: 18.9 nM
apparent KD of MS2 coat protein [2]: 15.8 nM
apparent KD of MS2 coat protein [3]: 14.6 nM

ACAUGAGGAUCACCCAUGUAAUCAUCAGAAGGAGCGUGGAAUAACACAGGUAGGUCGCUGAUGUUAUAUUAAUCUUAUUCGUAAA [JR_ExcArginiA_Sub003]
apparent KD of MS2 coat protein (input ligand: arginine 13.2 mM): 22 nM
apparent KD of MS2 coat protein (input ligand: none): 13.6 nM
apparent KD of MS2 coat protein [1]: 18.7 nM
apparent KD of MS2 coat protein [2]: 13.2 nM
apparent KD of MS2 coat protein [3]: 14.2 nM

ACAUGAGGAUCACCCAUGUACUGGAUCUAACGAGGACCGGUACGGCCGCCACUCGAAGAUAGGACUAUGGAAACAUAGCUUAUCA [Design 1]
apparent KD of MS2 coat protein (input ligand: arginine 13.2 mM): 15.3 nM
apparent KD of MS2 coat protein (input ligand: none): 15.3 nM
apparent KD of MS2 coat protein [1]: 19.9 nM
apparent KD of MS2 coat protein [2]: 18.4 nM
apparent KD of MS2 coat protein [3]: 14.6 nM

ACAUGAGGAUCACCCAUGUAGCGUAGGGAAGGAGCGGAAUAAAGUCCAGGUAGGUCGCCCAUAUGAUGAUCUCACUUAUUAUCGA [#12 Same State - Arginine A]
apparent KD of MS2 coat protein (input ligand: arginine 13.2 mM): 27.7 nM
apparent KD of MS2 coat protein (input ligand: none): 31 nM
apparent KD of MS2 coat protein [1]: 42.5 nM
apparent KD of MS2 coat protein [2]: 42.2 nM
apparent KD of MS2 coat protein [3]: 30.5 nM
